Sequences and labels used below:
B3: IpaH7.8 protein (residues 23–565) (enzyme)
chain: SNEHYLRILTEWEKNSSPGEERGIAFNRLSQCFQNQEAVLNLSDLNLTSLPELPKHISALIVENNKLTSLPKLPAFLKELNADNNRLSVIPELPESLTTLSVRSNQLENLPVLPNHLTSLFVENNRLYNLPALPEKLKFLHVYYNRLTTLPDLPDKLEILCAQRNNLVTFPQFSDRNNIRQKEYYFHFNQITTLPESFSQLDSSYRINISGNPLSTRVLQSLQRLTSSPDYHGPQIYFSMSDGQQNTLHRPLADAVTAWFPENKQSDVSQIWHAFEHEEHANTFSAFLDRLSDTVSARNTSGFREQVAAWLEKLSASAELRQQSFAVAADATESCEDRVALTWNNLRKTLLVHQASEGLFDNDTGALLSLGREMFRLEILEDIARDKVRTLHFVDEIEVYLAFQTMLAEKLQLSTAVKEMRFYGVSGVTANDLRTAEAMVRSREENEFTDWFSLWGPWHAVLKRTEADRWAQAEEQKYEMLENEYSQRVADRLKASGLSGDADAEREAGAQVMRETEQQIYRQLTDEVLALRLSENGSRLHHS
notes: IpaH7.8, type III secretion effector and E3 ubiquitin ligase of Shigella flexneri; residues 23-565; synthesized fragment; Limits 23-565 are stated for the SEC experiment; source: E. coli BL21 (DE3), purified (Ni-NTA, anion exchange, SEC); not shown: His, N-terminal, cleaved

The target of assay [1] is B3. As to the kind of experiment: ITC; MicroCal PEAQ-ITC, 25 °C; IpaH7.8 proteins injected into the cell containing GSDMB or GSDMD proteins; 25 mM Tris-HCl pH 8.0, 150 mM NaCl unless otherwise stated (one titration of IpaH7.8 into GSDMB in a high salt buffer). The settings on record: both partners purified.
Assay [2] has as its target T1, GSDMB (residues 1-411) (human, UniProt Q8TAX9-1 1-411).
T1 chain: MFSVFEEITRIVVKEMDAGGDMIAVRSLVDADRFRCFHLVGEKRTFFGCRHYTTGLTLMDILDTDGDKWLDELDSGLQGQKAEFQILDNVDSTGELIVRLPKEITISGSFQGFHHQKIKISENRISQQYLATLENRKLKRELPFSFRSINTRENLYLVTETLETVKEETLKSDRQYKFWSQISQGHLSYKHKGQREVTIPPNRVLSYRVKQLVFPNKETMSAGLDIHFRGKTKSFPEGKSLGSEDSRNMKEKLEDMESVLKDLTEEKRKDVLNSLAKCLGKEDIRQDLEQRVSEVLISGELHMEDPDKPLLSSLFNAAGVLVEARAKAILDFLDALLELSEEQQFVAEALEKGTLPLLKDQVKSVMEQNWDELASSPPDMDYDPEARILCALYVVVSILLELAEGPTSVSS
Description: ITC.

Assay [3] addresses T1, GSDMB (residues 1-411). As to the kind of experiment: ITC; 500 mM NaCl. A general note: In ITC the heat of successive injections is recorded.
Assay [4] concerns the target T2, GSDMB (residues 1-411) (human, UniProt Q8TAX9-1 1-411).
T2 construct: residues 1-411; For the crystal the complex was obtained by co-transforming the GSDMB and IpaH7.8 plasmids; limits 1-411 are stated for the crystallised protein; also called gasdermin B; WT GSDMB; source: E. coli BL21 (DE3), purified (Ni-NTA, anion exchange, SEC); not shown: His, N-terminal, cleaved; MBP, N-terminal, cleaved
T2 sequence: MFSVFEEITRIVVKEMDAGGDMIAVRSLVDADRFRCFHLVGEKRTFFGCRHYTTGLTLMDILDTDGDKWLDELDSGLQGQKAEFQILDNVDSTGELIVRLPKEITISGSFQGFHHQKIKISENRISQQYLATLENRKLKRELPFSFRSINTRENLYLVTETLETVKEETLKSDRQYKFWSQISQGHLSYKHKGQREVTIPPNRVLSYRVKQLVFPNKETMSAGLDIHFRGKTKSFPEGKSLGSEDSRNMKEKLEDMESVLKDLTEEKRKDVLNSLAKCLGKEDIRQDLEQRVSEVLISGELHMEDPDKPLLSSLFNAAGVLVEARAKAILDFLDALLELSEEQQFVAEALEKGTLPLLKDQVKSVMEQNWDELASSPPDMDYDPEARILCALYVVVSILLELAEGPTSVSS
Description: ITC; MicroCal PEAQ-ITC, 25 °C; IpaH7.8 proteins injected into the cell containing GSDMB or GSDMD proteins; 25 mM Tris-HCl pH 8.0, 150 mM NaCl unless otherwise stated (one titration of IpaH7.8 into GSDMB in a high salt buffer). The note with it: both partners purified.

B1: human GSDMD (natural protein)
chain: MGSAFERVVRRVVQELDHGGEFIPVTSLQSSTGFQPYCLVVRKPSSSWFWKPRYKCVNLSIKDILEPDAAEPDVQRGRSFHFYDAMDGQIQGSVELAAPGQAKIAGGAAVSDSSSTSMNVYSLSVDPNTWQTLLHERHLRQPEHKVLQQLRSRGDNVYVVTEVLQTQKEVEVTRTHKREGSGRFSLPGATCLQGEGQGHLSQKKTVTIPSGSTLAFRVAQLVIDSDLDVLLFPDKKQRTFQPPATGHKRSTSEGAWPQLPSGLSMMRCLHNFLTDGVPAEGAFTEDFQGLRAEVETISKELELLDRELCQLLLEGLEGVLRDQLALRALEEALEQGQSLGPVEPLDGPAGAVLECLVLSSGMLVPELAIPVVYLLGALTMLSETQHKLLAEALESQTLLGPLELVGSLLEQSAPWQERSTMSLPPGLLGNSWGEGAPAWVLLDECGLELGEDTPHVCWEPQAQGRMCALYASLALLSGLSQEPH
notes: also called hGSDMD; WT hGSDMD; source: E. coli BL21 (DE3), purified (same protocol as GSDMB); not shown: His, N-terminal, cleaved; MBP, N-terminal, cleaved
As for B1, in assay [1], the binding result is on record as “binds”.

B2: hGSDMD S124R (natural protein, human, UniProt P57764 1-484, looked up)
chain: MGSAFERVVRRVVQELDHGGEFIPVTSLQSSTGFQPYCLVVRKPSSSWFWKPRYKCVNLSIKDILEPDAAEPDVQRGRSFHFYDAMDGQIQGSVELAAPGQAKIAGGAAVSDSSSTSMNVYSLRVDPNTWQTLLHERHLRQPEHKVLQQLRSRGDNVYVVTEVLQTQKEVEVTRTHKREGSGRFSLPGATCLQGEGQGHLSQKKTVTIPSGSTLAFRVAQLVIDSDLDVLLFPDKKQRTFQPPATGHKRSTSEGAWPQLPSGLSMMRCLHNFLTDGVPAEGAFTEDFQGLRAEVETISKELELLDRELCQLLLEGLEGVLRDQLALRALEEALEQGQSLGPVEPLDGPAGAVLECLVLSSGMLVPELAIPVVYLLGALTMLSETQHKLLAEALESQTLLGPLELVGSLLEQSAPWQERSTMSLPPGLLGNSWGEGAPAWVLLDECGLELGEDTPHVCWEPQAQGRMCALYASLALLSGLSQEPH
notes: GSDMD, human, isoform 1 of UniProtKB P57764; construct as m34; also called hGSDMD bearing the S124R mutation; source: E. coli BL21 (DE3), purified (same protocol as GSDMB); not shown: His, N-terminal, cleaved; MBP, N-terminal, cleaved
Take B2: the binding result in assay [1] was “binds”. In general, Kd refers to the constant that tells how readily two partners part at equilibrium. A higher Kd goes with a looser complex. For B3, the values for the Kd with GSDMB (residues 1-411) [2] and with GSDMB (residues 1-411) [3] were 94 nM and 163 nM, respectively. Besides, in the assay with GSDMB (residues 1-411) [4], the “binding affinity in a high salt buffer against that in the standard buffer” value is 0.5 fold.

B4: N-terminal LRR domain (residues 23–264) of IpaH7.8 (domain or fragment)
chain: SNEHYLRILTEWEKNSSPGEERGIAFNRLSQCFQNQEAVLNLSDLNLTSLPELPKHISALIVENNKLTSLPKLPAFLKELNADNNRLSVIPELPESLTTLSVRSNQLENLPVLPNHLTSLFVENNRLYNLPALPEKLKFLHVYYNRLTTLPDLPDKLEILCAQRNNLVTFPQFSDRNNIRQKEYYFHFNQITTLPESFSQLDSSYRINISGNPLSTRVLQSLQRLTSSPDYHGPQIYFSMSD
As for B4, the Kd with GSDMB (residues 1-411) [2] amounted to 90 nM.

For the origin of these results see PMC9813358, “Insights into the GSDMB-mediated cellular lysis and its targeting by IpaH7.8” (Nature Communications, 2023).
